The results in this text go back to publication PMC7530888.

The target of this assay is GST-tagged MtbXthA (M. tuberculosis class II AP-endonuclease/3'-5' exonuclease XthA) (M. tuberculosis) (UniProt P96273). Put plainly: SPR. Background: SPR reads the build-up and loss of mass on a sensor chip optically.

“BRCT domain of MtbLigA, His-tagged (from UniProt P9WNV1 1-691) (domain or fragment)” gave a Kd of 67.7 nM.

A word on the Kd: it is the free concentration of one partner at which half of the binding sites on the other are occupied at equilibrium, for simple one-to-one binding.
